Results on three molecules are retold here after article PMC5865150, “Structure and evolution of the Fam20 kinases” (Nature Communications, 2018).

The stoichiometry N is the number of molecules, sites or subunits per partner or assembly.

B3: purified human Fam20C (residues 63-584) of the solution studies (domain or fragment, UniProt Q8IXL6 63-584, looked up)
chain: VRGRPGEPPAASSAAGDAGWPNKHTLRILQDFSSDPSSNLSSHSLEKLPPAAEPAERALRGRDPGALRPHDPAHRPLLRDPGPRRSESPPGPGGDASLLARLFEHPLYRVAVPPLTEEDVLFNVNSDTRLSPKAAENPDWPHAGAEGAEFLSPGEAAVDSYPNWLKFHIGINRYELYSRHNPAIEALLHDLSSQRITSVAMKSGGTQLKLIMTFQNYGQALFKPMKQTREQETPPDFFYFSDYERHNAEIAAFHLDRILDFRRVPPVAGRMVNMTKEIRDVTRDKKLWRTFFISPANNICFYGECSYYCSTEHALCGKPDQIEGSLAAFLPDLSLAKRKTWRNPWRRSYHKRKKAEWEVDPDYCEEVKQTPPYDSSHRILDVMDMTIFDFLMGNMDRHHYETFEKFGNETFIIHLDNGRGFGKYSHDELSILVPLQQCCRIRKSTYLRLQLLAKEEYKLSLLMAESLRGDQVAPVLYQPHLEALDRRLRVVLKAVRDCVERNGLHSVVDDDLDTEHRAASAR
notes: human Fam20C, residues 63-584; otherwise the same construct as m2 and m8; also called WT Fam20C; hsFam20C; source: High Five insect cells (baculovirus), conditioned medium, purified

Data set [1] addresses T1, human Fam20C (residues 63-584), untagged (human, UniProt Q8IXL6 63-584).
T1 construct: human Fam20C, residues 63-584; also called hsFam20C; source: High Five insect cells (baculovirus), conditioned medium, purified (Ni-NTA, TEV digestion, Resource Q, size exclusion); not shown: His6, N-terminal, cleaved; MBP, N-terminal, cleaved
T1 sequence (looked up): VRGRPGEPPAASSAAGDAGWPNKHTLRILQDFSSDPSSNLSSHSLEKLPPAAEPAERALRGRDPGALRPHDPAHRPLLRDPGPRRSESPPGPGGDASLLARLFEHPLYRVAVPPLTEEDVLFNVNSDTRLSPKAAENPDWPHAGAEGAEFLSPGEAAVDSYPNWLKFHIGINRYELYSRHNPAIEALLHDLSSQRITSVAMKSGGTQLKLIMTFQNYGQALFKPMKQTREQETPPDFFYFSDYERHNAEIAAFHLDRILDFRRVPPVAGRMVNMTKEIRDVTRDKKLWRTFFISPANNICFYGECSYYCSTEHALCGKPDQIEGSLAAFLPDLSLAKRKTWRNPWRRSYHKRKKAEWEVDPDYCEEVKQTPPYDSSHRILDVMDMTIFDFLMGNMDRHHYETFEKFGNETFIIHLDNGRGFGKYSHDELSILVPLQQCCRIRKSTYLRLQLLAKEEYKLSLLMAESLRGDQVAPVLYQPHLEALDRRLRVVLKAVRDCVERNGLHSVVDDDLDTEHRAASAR
Put plainly: crystal structure; human Fam20A-Fam20C complex, formed with 0.25 mM ATP and purified by size exclusion; crystals at 20 °C in 2% 1,4-dioxane, 0.1 M Bicine pH 9.0, 9% PEG 20,000. The note with it: both partners purified. (In general: Size exclusion chromatography separates by hydrodynamic size, large species first.)

The target of data set [2] is B3. The data set can be described thus: SEC; Fam20A mutants with human Fam20C; tetramer formation followed (Supplementary Fig. 5D). To be noted: both partners purified.
Data set [3] concerns the molecule itself. Put plainly: AUC; purified Fam20C alone; oligomerises in a concentration-dependent manner; ~1 mg per ml.

B1: human Fam20A (residues 69-529), untagged (domain or fragment, UniProt Q96MK3 69-529, looked up)
chain: HNFSRTEPRTEPAGGSHSGSSSKLQALFAHPLYNVPEEPPLLGAEDSLLASQEALRYYRRKVARWNRRHKMYREQMNLTSLDPPLQLRLEASWVQFHLGINRHGLYSRSSPVVSKLLQDMRHFPTISADYSQDEKALLGACDCTQIVKPSGVHLKLVLRFSDFGKAMFKPMRQQRDEETPVDFFYFIDFQRHNAEIAAFHLDRILDFRRVPPTVGRIVNVTKEILEVTKNEILQSVFFVSPASNVCFFAKCPYMCKTEYAVCGNPHLLEGSLSAFLPSLNLAPRLSVPNPWIRSYTLAGKEEWEVNPLYCDTVKQIYPYNNSQRLLNVIDMAIFDFLIGNMDRHHYEMFTKFGDDGFLIHLDNARGFGRHSHDEISILSPLSQCCMIKKKTLLHLQLLAQADYRLSDVMRESLLEDQLSPVLTEPHLLALDRRLQTILRTVEGCIVAHGQQSVIVDGPVEQ
notes: human Fam20A, pseudokinase, residues 69-529; Crystallised and kept with 0.25 mM ATP; also called hsFam20A; source: High Five insect cells (baculovirus), conditioned medium, purified (Ni-NTA, TEV digestion, Resource Q, size exclusion); not shown: His6, N-terminal, cleaved; MBP, N-terminal, cleaved
B1: the binding result in data set [1] is recorded as “binds”.

B2: Fam20A E299G/I300S (domain or fragment, human, UniProt Q96MK3 69-529, looked up)
chain: HNFSRTEPRTEPAGGSHSGSSSKLQALFAHPLYNVPEEPPLLGAEDSLLASQEALRYYRRKVARWNRRHKMYREQMNLTSLDPPLQLRLEASWVQFHLGINRHGLYSRSSPVVSKLLQDMRHFPTISADYSQDEKALLGACDCTQIVKPSGVHLKLVLRFSDFGKAMFKPMRQQRDEETPVDFFYFIDFQRHNAEIAAFHLDRILDFRRVPPTVGRIVNVTKEILEVTKNGSLQSVFFVSPASNVCFFAKCPYMCKTEYAVCGNPHLLEGSLSAFLPSLNLAPRLSVPNPWIRSYTLAGKEEWEVNPLYCDTVKQIYPYNNSQRLLNVIDMAIFDFLIGNMDRHHYEMFTKFGDDGFLIHLDNARGFGRHSHDEISILSPLSQCCMIKKKTLLHLQLLAQADYRLSDVMRESLLEDQLSPVLTEPHLLALDRRLQTILRTVEGCIVAHGQQSVIVDGPVEQ
notes: human Fam20A, residues 69-529; The mutations create a site for N-linked glycosylation (Asn298-Gly299-Ser300); The limits are those of the only insect-cell Fam20A construct told in the methods; source: High Five insect cells (baculovirus), conditioned medium, purified as the WT protein
On to B2, for which, in data set [2], the binding result is reported as “binds”.

As to B3, the “stoichiometry N” value in data set [3] was 2.
